From the supplement of paper PMC10567573 come the findings set out here.

± gives the standard deviation.

The nature of this data set: protein stability index of a GFP-peptide fusion (GPS, HEK-293T) (PSI 1-6); higher = more stable. To be noted: c terminus: a fixed tail appended.
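Note: 24-mer peptide tiles fused after GFP, lentivirally expressed, FACS-sorted into six equal bins by GFP/DsRed ratio, decoded by Illumina sequencing, PSI is the read-weighted mean bin number.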

QELSEVLELLSAPELKSLAKTFHL [FAN1] returned a protein stability index (treatment: DMSO) of 2.26 ± 0.46 and a protein stability index (treatment: MLN4924 1 uM, 8 h) of 2.25 ± 0.14.

Take QEQLSLSQRQAKELKLEQQEAAER [LRRC45]: the protein stability index is 5.5 ± 0.19 (treatment: DMSO) and 5.67 ± 0.22 (treatment: MLN4924 1 uM, 8 h).

Turning to QFILRVSPDLEWHAACLKCAECSQ [ISL2], the protein stability index amounted to 2.16 ± 0.34 (treatment: DMSO) and 2.19 ± 0.34 (treatment: MLN4924 1 uM, 8 h).

For the sequence QGFRTVLELVINYQQLCIYWTKYY [OAS1], the protein stability index runs as follows: (treatment: DMSO) 2.96 ± 0.33; (treatment: MLN4924 1 uM, 8 h) 2.79 ± 0.51.

With QGLIGSVEEQLAQLRCEMEQQNQE [KRT17], the protein stability index was determined as 5.3 ± 0.36 (treatment: DMSO) and 5.29 ± 0.34 (treatment: MLN4924 1 uM, 8 h).

QGLKLYAVEISDHPGEHEVGEPEF [CPXM2]: the protein stability index stood at 4.5 ± 0.55 (treatment: DMSO) and 5.11 ± 0.06 (treatment: MLN4924 1 uM, 8 h).

For the sequence QGPISTKELADFIRERATIEETYS [FCHO1], the protein stability index is, setting by setting: (treatment: DMSO) 3.13 ± 0.21; (treatment: MLN4924 1 uM, 8 h) 3.26 ± 0.32.

Consider QILYESCPKYKFISCPTCRRETVL [RNF208], for which the protein stability index was determined as 2.15 ± 0.32 (treatment: DMSO) and 2.23 ± 0.28 (treatment: MLN4924 1 uM, 8 h).

Turning to QLFFFHLFVGVDCFLLTAMAYDQF [OR3A1], the protein stability index worked out at 3.13 ± 0.23 (treatment: DMSO) and 3.41 ± 0.16 (treatment: MLN4924 1 uM, 8 h).

In the case of QLFSQIGPCKNCKMIMDTAGNDPY [TIA1], the protein stability index (treatment: DMSO) turned out to be 2.32 ± 0.1 and the protein stability index (treatment: MLN4924 1 uM, 8 h) amounted to 2.45 ± 0.28.

On to QLHIFNTLRSHLIDKGMLTSTTED [CDS2], for which the protein stability index stood at 2.93 ± 0.2 (treatment: DMSO) and 3.09 ± 0.26 (treatment: MLN4924 1 uM, 8 h).

QLIDPDENKENEAFEFKKPVRPVS [CDC25A]: the protein stability index by setting is: (treatment: DMSO) 3.59 ± 0.41; (treatment: MLN4924 1 uM, 8 h) 4.03 ± 0.27.

Sequence QLIGSSNLFVMQVEMDIYTALKKW [GMCL1] displayed a protein stability index (treatment: DMSO) of 2.57 ± 0.61 and a protein stability index (treatment: MLN4924 1 uM, 8 h) of 2.28 ± 0.81.

Regarding QLLADEKMKQLTEETEVLAHEIER [TRIM35], the protein stability index is 5.09 ± 0.46 (treatment: DMSO) and 5.21 ± 0.21 (treatment: MLN4924 1 uM, 8 h).

Regarding QMLWELVLLGEPLVVMAPSPSESS [DENND6A], the protein stability index was found to be 2.33 ± 0.72 (treatment: DMSO) and 2.17 ± 0.49 (treatment: MLN4924 1 uM, 8 h).

Take QNLLREKIMKLPLPESLKAYLTYF [PCMTD1]: the protein stability index runs as follows: (treatment: DMSO) 2.49 ± 0.53; (treatment: MLN4924 1 uM, 8 h) 2.12 ± 0.36.

For QPCSIVDVEFLPVYHPSPEESRDP [LPCAT4], the protein stability index stood at 4.84 ± 0.28 (treatment: DMSO) and 4.88 ± 0.38 (treatment: MLN4924 1 uM, 8 h).

Regarding QQPGQDALAVKAGHGYDSKKQQEL [ZBED1], the protein stability index is, setting by setting: (treatment: DMSO) 5.35 ± 0.22; (treatment: MLN4924 1 uM, 8 h) 5.21 ± 0.19.

On to QRCQKCSWSQYEMPEFSSDSTMRI [RTP4], for which the protein stability index by setting is: (treatment: DMSO) 2.36 ± 0.18; (treatment: MLN4924 1 uM, 8 h) 2.42 ± 0.16.

For the sequence QRGHYRVARILIDLCSDVNVCSLL [RIPK4], the protein stability index is, setting by setting: (treatment: DMSO) 2.9 ± 0.7; (treatment: MLN4924 1 uM, 8 h) 2.69 ± 0.28.

As for QSLAQPLPGNTTEATPRSLRASGS, the protein stability index is, setting by setting: (treatment: DMSO) 4.93 ± 0.33; (treatment: MLN4924 1 uM, 8 h) 5.13 ± 0.18.

On to QTESALSKKLRAILPKQSRKSMLD [LCOR], for which the protein stability index by setting is: (treatment: DMSO) 3.05 ± 0.098; (treatment: MLN4924 1 uM, 8 h) 3.14 ± 0.2.

For QTLSPDMQGAYCTFPASVLAPVPT [DUSP5], the protein stability index by setting is: (treatment: DMSO) 3.51 ± 0.32; (treatment: MLN4924 1 uM, 8 h) 3.51 ± 0.21.

In the case of QTMAGSSPNTPQPVPEQSALCQGL [FAM104A], the protein stability index amounted to 4.75 ± 0.19 (treatment: DMSO) and 4.84 ± 0.17 (treatment: MLN4924 1 uM, 8 h).

QTQTVAAQAQALAAQAAAAAHAAQ [PI4K2A]: the protein stability index by setting is: (treatment: DMSO) 4.33 ± 0.22; (treatment: MLN4924 1 uM, 8 h) 4.42 ± 0.19.

Take QVEKNKYDASAIDFSRCDMDGATL [ELF3]: the protein stability index runs as follows: (treatment: DMSO) 4.63 ± 0.23; (treatment: MLN4924 1 uM, 8 h) 4.58 ± 0.14.

Consider QVLRFYAIWDDTDSMYGECRTYII [EFHC1], for which the protein stability index reads like this: (treatment: DMSO) 2.91 ± 1; (treatment: MLN4924 1 uM, 8 h) 2.58 ± 0.47.

As to QVQSMVVGEVLKDIETACKLLNIT [SPDEF], the protein stability index was 2.42 ± 0.36 (treatment: DMSO) and 2.39 ± 0.35 (treatment: MLN4924 1 uM, 8 h).

Take RAGGWVSGEEFYMLTRRVLQLETV [PKD2L1]: the protein stability index by setting is: (treatment: DMSO) 1.98 ± 0.14; (treatment: MLN4924 1 uM, 8 h) 2.5 ± 0.35.

In the case of RASRTYELQNQLAACTRALESSEE [FSD1], the protein stability index runs as follows: (treatment: DMSO) 5.01 ± 0.2; (treatment: MLN4924 1 uM, 8 h) 4.92 ± 0.26.

Turning to RDAAGKPQRPRSAPRTSSCAERLQ [FCHO1], the protein stability index by setting is: (treatment: DMSO) 4.75 ± 0.15; (treatment: MLN4924 1 uM, 8 h) 4.68 ± 0.098.

Consider RDVKKTGFVFGTTLIMLLSLAAFS [RTN3], for which the protein stability index was 3.03 ± 0.43 (treatment: DMSO) and 3.19 ± 0.39 (treatment: MLN4924 1 uM, 8 h).

With REDILSCYDVYSPDKEEQLPFGPF [PKD2L1], the protein stability index runs as follows: (treatment: DMSO) 4.09 ± 0.17; (treatment: MLN4924 1 uM, 8 h) 3.93 ± 0.23.

Turning to RESERRNHSLARHADILAAVETRL [FBXO28], the protein stability index by setting is: (treatment: DMSO) 3.71 ± 0.15; (treatment: MLN4924 1 uM, 8 h) 3.9 ± 0.27.

Consider RFLLYTNENPNNFQILLLSDPSTI [PNLIPRP1], for which the protein stability index reads like this: (treatment: DMSO) 2.94 ± 1; (treatment: MLN4924 1 uM, 8 h) 2.57 ± 0.61.

In the case of RGDGGIYIGSIMKGGAVAADGRIE [DVL3], the protein stability index was 3.65 ± 0.18 (treatment: DMSO) and 3.75 ± 0.21 (treatment: MLN4924 1 uM, 8 h).

For RGKRGYSRGLHAWEISWPLEQRGT [SPSB2], the protein stability index amounted to 2.88 ± 0.087 (treatment: DMSO) and 3.03 ± 0.41 (treatment: MLN4924 1 uM, 8 h).

Sequence RGYPPPRDSYSSSSRGAPRGGGRG [RBMX] displayed a protein stability index (treatment: DMSO) of 5.12 ± 0.36 and a protein stability index (treatment: MLN4924 1 uM, 8 h) of 5.3 ± 0.23.

As to RHDGYATNDGNHPSCQETRDYAPP [RBMY1A1], the protein stability index was determined as 5 ± 0.31 (treatment: DMSO) and 4.93 ± 0.084 (treatment: MLN4924 1 uM, 8 h).

With RHRLITQVYLSHTAWTEACQVEVR [INTS4], the protein stability index was 2.37 ± 0.15 (treatment: DMSO) and 2.43 ± 0.51 (treatment: MLN4924 1 uM, 8 h).

For RIIYMLLITIATFQIAANLSMERY [SLC19A2], the protein stability index amounted to 3.32 ± 0.31 (treatment: DMSO) and 2.91 ± 0.12 (treatment: MLN4924 1 uM, 8 h).

In the case of RKLSSAVRSGIVEYLSLVKGGQDV [PRIM1], the protein stability index is, setting by setting: (treatment: DMSO) 2.68 ± 0.36; (treatment: MLN4924 1 uM, 8 h) 2.77 ± 0.36.

Regarding RKPVEAESVEGVVRILLEHYYKEN [INTS4], the protein stability index runs as follows: (treatment: DMSO) 2.35 ± 0.27; (treatment: MLN4924 1 uM, 8 h) 2.41 ± 0.5.

For the sequence RKRKQSGHSPARAGKQRMKEKEQE [DDIT3], the protein stability index is 5.15 ± 0.34 (treatment: DMSO) and 5.51 ± 0.38 (treatment: MLN4924 1 uM, 8 h).

For RLRLQRTGGLGGERERQPCGDGNT [SOAT2], the protein stability index runs as follows: (treatment: DMSO) 4.59 ± 0.099; (treatment: MLN4924 1 uM, 8 h) 4.49 ± 0.14.

On to RMNDLHYLNLDTWEWNELIPQGIC [KLHDC2], for which the protein stability index reads like this: (treatment: DMSO) 2.3 ± 0.58; (treatment: MLN4924 1 uM, 8 h) 2.31 ± 0.24.

For the sequence RNQCRYCRLKKCFRAGMKKEAVQN [HNF4A], the protein stability index runs as follows: (treatment: DMSO) 2.9 ± 0.33; (treatment: MLN4924 1 uM, 8 h) 3.19 ± 0.45.

Regarding RNQKGEQVFRLAFRSGALDLDSCS [MYORG], the protein stability index was 2.42 ± 0.33 (treatment: DMSO) and 2.48 ± 0.4 (treatment: MLN4924 1 uM, 8 h).

Turning to RPLLQYVQDMGQEDMLLPLAWRIV [CCNC], the protein stability index came out at 2.44 ± 0.17 (treatment: DMSO) and 2.24 ± 0.31 (treatment: MLN4924 1 uM, 8 h).

In the case of RPTPQDWLHRRAQILEILRRRPWA [ADAMTS4], the protein stability index was determined as 2.63 ± 0.13 (treatment: DMSO) and 3.1 ± 0.48 (treatment: MLN4924 1 uM, 8 h).

RQLEIMGKEVSGDQIEDMFEQGKW [STX11] showed a protein stability index (treatment: DMSO) of 3.73 ± 0.13 and a protein stability index (treatment: MLN4924 1 uM, 8 h) of 3.56 ± 0.2.

Regarding RQLYAVNRRLRALEEQGATWRHRE [FATE1], the protein stability index by setting is: (treatment: DMSO) 3.52 ± 0.3; (treatment: MLN4924 1 uM, 8 h) 3.56 ± 0.15.

On to RQTVPPLTVRLHTQSVSECITEDG [PWWP2B], for which the protein stability index is, setting by setting: (treatment: DMSO) 4.94 ± 0.11; (treatment: MLN4924 1 uM, 8 h) 4.7 ± 0.22.
